# Assay: Specific activity of enzyme (PPIase activity measurement)
# Type: biochemical
# Details: recombinant E. coli PPIase-β, FIG. 26
# Description: As a result, the specific activity of the natural enzyme was.51,480 arbitrary units/[…] 1 unit, while that of the recombinant enzyme was 52,876 arbitrary units/A280 1 unit. Thus, no distinction could be made on specific activity (FIG. 26).
molecule,measurement,value
"recombinant enzyme: E. coli PPIase-β produced by E. coli HB101 transformed with expression plasmid pATtrp EPPIb (protein, UniProt P23869 1-164, looked up) Peptidyl-prolyl cis-trans …: MVTFHTNHGDIVIKTFDDKAPETVKNFLDYCREGFYNNTIFHRVINGFMIQGGGFEPGMKQKATKEPIKNEANNGLKNTRGTLAMARTQAPHSATAQFFINVVDNDFLNFSGESLQGWGYCVFAEVVDGMDVVDKIKGVATGRSGMHQDVPKEDVIIESVTVSE",specific activity,"52,876 arbitrary units/A280 1 unit"

# — patent US5416015A, “Isolated genes encoding peptidyl prolyl-cis.trans-isomerase and plasmids comprising said genes” (Tonen Corporation, priority 1989, dated 1995)
